T1: HA-tagged dopamine D2 receptor, P14416
T1 chain: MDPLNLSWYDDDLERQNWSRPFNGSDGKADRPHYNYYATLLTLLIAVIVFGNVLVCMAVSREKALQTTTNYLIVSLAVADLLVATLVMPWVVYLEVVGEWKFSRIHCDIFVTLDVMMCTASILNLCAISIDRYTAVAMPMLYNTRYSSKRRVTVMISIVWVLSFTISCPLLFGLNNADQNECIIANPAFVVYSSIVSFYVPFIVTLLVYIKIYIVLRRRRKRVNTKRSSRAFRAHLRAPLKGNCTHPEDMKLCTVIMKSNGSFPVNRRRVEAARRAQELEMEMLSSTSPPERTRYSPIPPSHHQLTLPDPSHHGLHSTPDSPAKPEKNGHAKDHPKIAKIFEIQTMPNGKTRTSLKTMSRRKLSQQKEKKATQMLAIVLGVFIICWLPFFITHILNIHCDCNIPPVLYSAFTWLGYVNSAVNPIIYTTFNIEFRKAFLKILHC

T2: dopamine D1 receptor, C-terminally tagged with Renilla luciferase variant 8, P21728
T2 chain: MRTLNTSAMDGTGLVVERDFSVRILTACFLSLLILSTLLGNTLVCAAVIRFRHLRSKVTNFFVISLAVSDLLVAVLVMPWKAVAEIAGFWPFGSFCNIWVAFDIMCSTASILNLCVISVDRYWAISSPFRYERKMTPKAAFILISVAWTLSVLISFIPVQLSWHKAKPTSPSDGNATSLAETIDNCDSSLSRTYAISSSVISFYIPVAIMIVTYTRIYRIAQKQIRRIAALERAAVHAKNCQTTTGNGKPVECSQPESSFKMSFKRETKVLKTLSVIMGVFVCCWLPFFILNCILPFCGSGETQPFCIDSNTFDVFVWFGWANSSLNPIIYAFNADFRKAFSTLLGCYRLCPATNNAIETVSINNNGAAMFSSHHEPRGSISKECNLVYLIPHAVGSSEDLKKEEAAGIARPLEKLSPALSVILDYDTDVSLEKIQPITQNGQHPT

T3: dopamine D2 receptor (long isoform), C-terminally tagged with Renilla luciferase variant 8, P14416
T3 chain: T1 chain

T4: M2 muscarinic acetylcholine receptor, C-terminally tagged with Renilla luciferase variant 8, P08172
T4 chain: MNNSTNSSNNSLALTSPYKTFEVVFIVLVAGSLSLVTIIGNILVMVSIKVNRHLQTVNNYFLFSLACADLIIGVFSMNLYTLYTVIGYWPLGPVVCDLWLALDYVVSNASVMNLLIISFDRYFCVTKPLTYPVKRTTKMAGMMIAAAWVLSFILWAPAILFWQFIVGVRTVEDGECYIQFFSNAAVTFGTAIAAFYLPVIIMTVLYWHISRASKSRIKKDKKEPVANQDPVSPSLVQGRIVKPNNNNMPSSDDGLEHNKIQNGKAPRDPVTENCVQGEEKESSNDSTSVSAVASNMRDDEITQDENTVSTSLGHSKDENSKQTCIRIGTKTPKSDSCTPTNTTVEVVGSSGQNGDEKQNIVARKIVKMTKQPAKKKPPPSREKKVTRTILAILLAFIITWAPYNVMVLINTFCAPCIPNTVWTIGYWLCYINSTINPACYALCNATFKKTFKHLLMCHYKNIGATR

B1: Venus-tagged arrestin-3 A87V base mutant, P32120 G65del (protein)
chain: MGEKPGTRVFKKSSPNCKLTVYLGKRDFVDHLDKVDPVDGVVLVDPDYLKDRKVFVTLTCAFRYREDLDVLGLSFRKDLFIANYQVFPPTPNPPRPPTRLQERLLRKLGQHAHPFFFTIPQNLPCSVTLQPGPEDTGKACGVDFEIRAFCAKSLEEKSHKRNSVRLVIRKVQFAPEKPGPQPSAETTRHFLMSDRSLHLEASLDKELYYHGEPLNVNVHVTNNSTKTVKKIKVSVRQYADICLFSTAQYKCPVAQVEQDDQVSPSSTFCKVYTITPLLSNNREKRGLALDGKLKHEDTNLASSTIVKEGANKEVLGILVSYRVKVKLVVSRGGDVSVELPFVLMHPKPHDHIALPRPQSAA
B2: Venus-tagged arrestin-3 A87V base mutant, P32120 K313A (protein)
chain: MGEKPGTRVFKKSSPNCKLTVYLGKRDFVDHLDKVDPVDGVVLVDPDYLKDRKVFVTLTCAFRYGREDLDVLGLSFRKDLFIANYQVFPPTPNPPRPPTRLQERLLRKLGQHAHPFFFTIPQNLPCSVTLQPGPEDTGKACGVDFEIRAFCAKSLEEKSHKRNSVRLVIRKVQFAPEKPGPQPSAETTRHFLMSDRSLHLEASLDKELYYHGEPLNVNVHVTNNSTKTVKKIKVSVRQYADICLFSTAQYKCPVAQVEQDDQVSPSSTFCKVYTITPLLSNNREKRGLALDGKLKHEDTNLASSTIVKEGANAEVLGILVSYRVKVKLVVSRGGDVSVELPFVLMHPKPHDHIALPRPQSAA
B3: Venus-tagged arrestin-3 A87V base mutant, P32120 E157A (protein)
chain: B2 chain with E157A, A313K
B4: Venus-tagged arrestin-3 A87V base mutant, P32120 G65P (protein)
chain: B2 chain with G65P, A313K
B5: Venus-tagged arrestin-3 A87V base mutant, P32120 F245A (protein)
chain: B2 chain with F245A, A313K

Experimental findings from article PMC6420155 are described below.

Residue numbers refer to the chain shown, from its start. Names may count otherwise.

The first assay addresses T1, HA-tagged dopamine D2 receptor, P14416. In words: co-immunoprecipitation (quantified immunoblot). Particulars: chain shown with the change; HEK293 arrestin 2/3 KO cells; 10 μM quinpirole; non-specific binding (no HA-D2R) subtracted; parent: est. 8.4; read off a plot.
Consider B1, for which the response was found to be 2.7.

A further assay addresses T2, dopamine D1 receptor, C-terminally …. In words: BRET. To be noted: chain shown with the change; HEK293 arrestin 2/3 KO cells; agonist-induced minus basal BRET; average at 10 and 15 min; parent: est. 0.032; read off a plot.
Consider B2, for which the response stood at 0.033.
On to B3, for which the response was 0.042.
B4: the response was determined as 0.033.
Take B5: the response turned out to be 0.042.
For B1, the response was determined as 0.019.

The next assay has as its target T3, dopamine D2 receptor (long isoform), …. Kind of assay: BRET. Particulars: chain shown with the change; HEK293 arrestin 2/3 KO cells; agonist-induced minus basal BRET; average at 10 and 15 min; parent: est. 0.023; read off a plot.
As to B2, the response was found to be 0.025.
On to B3, for which the response came to 0.023.
For the molecule B4, the response stood at 0.019.
B5: the response came out at 0.027.

Another assay addresses T4, M2 muscarinic acetylcholine receptor, …. Kind of assay: BRET. Particulars: chain shown with the change; HEK293 arrestin 2/3 KO cells; agonist-induced minus basal BRET; average at 10 and 15 min; parent: est. 0.029; read off a plot.
As for B2, the response came to 0.032.
Regarding B3, the response was found to be 0.026.
For B4, the response is 0.023.
On to B5, for which the response stood at 0.031.
For B1, the response was 0.019.

A further assay has as its target dopamine D2 receptor (long isoform), C-terminally tagged with Renilla luciferase variant 8 (human) (UniProt P14416). In words: FRET or BRET; in-cell BRET in HEK293 arrestin-2/3 KO cells co-transfected with Venus-arrestin-3 (acceptor) and receptor-RLuc8 (donor); 10 uM agonist (carbachol for M2R, isoproterenol for β2AR, dopamine for D1R, quinpirole for D2R), 5 uM coelenterazine h; net BRET (with minus without agonist), average at 10 and 15 min and time course.
Details: not given
“Venus-tagged arrestin-3 ΔG65 (on the A87V background) (from UniProt P32120 1-362) (natural protein)” gave a reduction of binding (net BRET) against A87V of 80%.
